The source of these data is the RNAGym collection of RNA variant scans (doi:10.1093/molbev/msab373).

First the molecules themselves.
B1: Azoarcus group I ribozyme (parent)
chain: GUGCCUUGCGCCGGGAAACCACGCAAGGGAUGGUGUCAAAUUCGGCGAAACCUAAGCGCCCGCCCGGGCGUAUGGCAACGCCGAGCCAAGCUUCGGCGCCUGCGCCGAUGAAGGUGUAGAGACUAGACGGCACCCACCUAAGGCAAACGCUAUGGUGAAGGCAUAGUCCAGGGAGUGGCGAAAGUCACACAAACCGG

Variants of B1 are the subject of this series. Description: reverse-splicing fitness (ratio to wild type); higher = more active; in vitro selection; Mg2+ level not given. In short, it runs like this: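 An in vitro group I ribozyme library with randomized positions was T7-transcribed and gel-purified. In triplicate, 10 pmol RNA in EPPS pH 7.5 was reacted with 50 pmoles of a 30-nt RNA substrate for 1 h at 37 °C across several added MgCl2 levels (1–48 mM), then stopped with EDTA. Products were reverse transcribed from a substrate-complementary primer, PCR-amplified and sequenced (HiSeq 4000). Fitness is a variant's read proportion after selection over that before, normalised to wild type.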
Turning to A111U A120C A145C C150G C169U U176G, the reverse-splicing fitness was 0.00478.

A111U A120C A145C C150G C169U U176A: the reverse-splicing fitness was 0.0109.

Regarding A111U A120C A145C C150G C169U U176C, the reverse-splicing fitness came to 0.0144.

In the case of A111G A145U C150A C169G U176C, the reverse-splicing fitness worked out at 0.0131.

On to A111G A145U C150A C169G U176G, for which the reverse-splicing fitness was 0.00512.

As for A111G A145U C150A C169G U176A, the reverse-splicing fitness is 0.014.

For A111G A145C C150U C169U, the reverse-splicing fitness was 0.0495.

A111G A145C C150U C169A: the reverse-splicing fitness amounted to 0.0167.

Take A111G A145C C150U C169G: the reverse-splicing fitness is 0.0327.

Consider A111G A145C C150U C169A U176G, for which the reverse-splicing fitness was 0.0059.

With A111G A145C C150U C169A U176A, the reverse-splicing fitness is 0.0101.

Regarding A111G A145C C150U C169A U176C, the reverse-splicing fitness was 0.00832.

Regarding A111G A145U C169A U176C, the reverse-splicing fitness came to 0.0203.

On to A111G A145U C169A U176A, for which the reverse-splicing fitness stood at 0.0114.

As to A111G A145U C169A U176G, the reverse-splicing fitness stood at 0.00483.

With A111G A145G C150U U176A, the reverse-splicing fitness was 0.72.

On to A111G A145G C150U U176G, for which the reverse-splicing fitness turned out to be 0.25.

As to A111G A145G C150U U176C, the reverse-splicing fitness was 0.713.

For the variant A111U A120C A145G C150U C169A U176G, the reverse-splicing fitness was found to be 0.00555.

On to A111U A120C A145G C150U C169A U176C, for which the reverse-splicing fitness stood at 0.0138.

As to A111U A120C A145G C150U C169A U176A, the reverse-splicing fitness worked out at 0.0143.

With A111G A145G C150G C169U U176C, the reverse-splicing fitness was found to be 0.0172.

Turning to A111G A145G C150G C169U U176A, the reverse-splicing fitness came to 0.011.

Take A111G A145G C150G C169U U176G: the reverse-splicing fitness turned out to be 0.00609.

As to A111G A145G C150G U176G, the reverse-splicing fitness worked out at 0.0237.

As to A111G A145G C150G U176A, the reverse-splicing fitness was determined as 0.111.

For A111G A145G C150G U176C, the reverse-splicing fitness stood at 0.184.

As to A111G A145U U176G, the reverse-splicing fitness was found to be 0.524.

Turning to A111G A145U U176A, the reverse-splicing fitness was found to be 0.755.

A111G A145U U176C: the reverse-splicing fitness was found to be 0.809.

As to A111G A145U, the reverse-splicing fitness amounted to 0.957.

A111G A145G: the reverse-splicing fitness was found to be 0.9.

In the case of A111U, the reverse-splicing fitness amounted to 0.971.

On to A111G A145U C169U U176G, for which the reverse-splicing fitness worked out at 0.00767.

With A111G A145U C169U U176A, the reverse-splicing fitness came to 0.0488.

For A111G A145U C169U U176C, the reverse-splicing fitness stood at 0.0656.

For the variant A111U A120C A145G C150G U176A, the reverse-splicing fitness was found to be 0.0125.

Regarding A111U A120C A145G C150G U176C, the reverse-splicing fitness was determined as 0.0344.

Take A111U A120C A145G C150G U176G: the reverse-splicing fitness amounted to 0.00627.

Turning to A111G A145U C150G C169A U176A, the reverse-splicing fitness came out at 0.00932.

For the variant A111G A145U C150G C169A U176C, the reverse-splicing fitness was 0.00907.

For A111G A145U C150G C169A U176G, the reverse-splicing fitness came out at 0.00461.

As for A111U A120C A145G C150G, the reverse-splicing fitness came out at 0.0716.

Turning to A111U A120C A145G C150U, the reverse-splicing fitness is 0.495.

As for A111U A120C A145G C150A, the reverse-splicing fitness amounted to 0.0986.

Turning to A111U A120C A145C C169G, the reverse-splicing fitness turned out to be 0.00891.

Take A111U A120C A145C C169U: the reverse-splicing fitness stood at 0.164.

With A111U A120C A145C C169A, the reverse-splicing fitness amounted to 0.00906.

For A111U A120C A145C C150U C169G U176C, the reverse-splicing fitness turned out to be 0.00958.

Take A111U A120C A145C C150U C169G U176G: the reverse-splicing fitness is 0.00481.

As for A111U A120C A145C C150U C169G U176A, the reverse-splicing fitness worked out at 0.0171.

Turning to A111U A120C A145C C150U U176G, the reverse-splicing fitness is 0.019.

Take A111U A120C A145C C150U U176C: the reverse-splicing fitness is 0.0967.

For A111U A120C A145C C150U U176A, the reverse-splicing fitness stood at 0.0815.

Regarding A111G A145U C150A C169U, the reverse-splicing fitness stood at 0.0232.

Regarding A111G A145U C150A C169G, the reverse-splicing fitness was found to be 0.016.

A111G A145U C150A C169A: the reverse-splicing fitness came to 0.0105.

Take A111U A120C A145C C150A C169U: the reverse-splicing fitness was found to be 0.013.

For A111U A120C A145C C150A C169G, the reverse-splicing fitness was determined as 0.00677.

Regarding A111U A120C A145C C150A C169A, the reverse-splicing fitness was 0.00677.

As for A111G A145U C150G C169G U176C, the reverse-splicing fitness was 0.00501.

With A111G A145U C150G C169G U176A, the reverse-splicing fitness came to 0.00712.

Take A111G A145U C150G C169G U176G: the reverse-splicing fitness stood at 0.00482.

As for A111G C150A C169U U176A, the reverse-splicing fitness turned out to be 0.0199.

Regarding A111G C150A C169U U176C, the reverse-splicing fitness was 0.0264.

For A111G C150A C169U U176G, the reverse-splicing fitness came to 0.00628.

For the variant A111G C150G C169A U176G, the reverse-splicing fitness is 0.00557.

For the variant A111G C150G C169A U176A, the reverse-splicing fitness stood at 0.0101.

Take A111G C150G C169A U176C: the reverse-splicing fitness was determined as 0.0111.

On to A111G C150A C169G U176C, for which the reverse-splicing fitness was 0.0218.

As to A111G C150A C169G U176A, the reverse-splicing fitness worked out at 0.0252.

Consider A111G C150A C169G U176G, for which the reverse-splicing fitness was determined as 0.00767.

Take A111G C150G C169U U176G: the reverse-splicing fitness worked out at 0.00532.

For the variant A111G C150G C169U U176A, the reverse-splicing fitness came to 0.00683.

As to A111G C150G C169U U176C, the reverse-splicing fitness was determined as 0.0163.

As to A111U A120C A145C C150U C169A, the reverse-splicing fitness is 0.00788.

Turning to A111U A120C A145C C150U C169G, the reverse-splicing fitness came to 0.00744.

For A111U A120C A145C C150U C169U, the reverse-splicing fitness amounted to 0.05.

Turning to A111G A145G C150A U176C, the reverse-splicing fitness was found to be 0.32.

Turning to A111G A145G C150A U176A, the reverse-splicing fitness was 0.297.

Regarding A111G A145G C150A U176G, the reverse-splicing fitness turned out to be 0.109.

For A111G A145C C169U U176G, the reverse-splicing fitness amounted to 0.00859.

As for A111G A145C C169U U176C, the reverse-splicing fitness was 0.0591.
